Assay results: paper PMC3471833

Biological target: human complement C1 esterase inhibitor (human) (UniProt P05155)
Chain of UniProt P05155 (P05155 23-500): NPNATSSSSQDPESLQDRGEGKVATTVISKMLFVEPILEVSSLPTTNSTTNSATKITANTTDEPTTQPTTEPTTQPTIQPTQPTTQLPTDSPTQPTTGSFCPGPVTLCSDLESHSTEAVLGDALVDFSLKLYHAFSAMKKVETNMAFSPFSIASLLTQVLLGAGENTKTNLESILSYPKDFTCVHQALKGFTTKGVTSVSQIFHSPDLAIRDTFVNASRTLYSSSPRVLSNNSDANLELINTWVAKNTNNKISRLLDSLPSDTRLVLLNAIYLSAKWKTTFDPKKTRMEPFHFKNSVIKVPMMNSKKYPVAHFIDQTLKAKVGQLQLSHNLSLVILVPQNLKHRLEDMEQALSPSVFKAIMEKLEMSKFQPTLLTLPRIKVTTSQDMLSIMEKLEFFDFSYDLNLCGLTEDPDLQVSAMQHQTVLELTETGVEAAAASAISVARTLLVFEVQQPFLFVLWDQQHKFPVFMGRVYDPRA

In the case of Activated C1s (enzyme), the percentage of dead E. coli BL21 (Live/Dead staining) after antibody 2E4 and human complement plasma treated with OSCS (25.5% without GAG, 26.5% with CSA) is reported as 8%.
